The target of this assay is Edc3 IDR. In words: methyl TROSY NMR titration.

In the case of “Edc3 YjeF_N domain (from UniProt O94752) V253I”, the other: chemical shift perturbation Δδ of the introduced methyl group (+ 4x Edc3 IDR) amounted to 0.391 ppm.

For “Edc3 YjeF_N domain (from UniProt O94752) Q447I”, for the setting “+ 6x Edc3 IDR”, the other: chemical shift perturbation Δδ of the introduced methyl group amounted to 0.078 ppm.

On to “Edc3 YjeF_N domain (from UniProt O94752) K392M”, for which, where the note is “+ 6x Edc3 IDR”, the other: chemical shift perturbation Δδ of the introduced methyl group worked out at 0.087 ppm.

Turning to “Edc3 YjeF_N domain (from UniProt O94752) W393M”, the other: chemical shift perturbation Δδ of the introduced methyl group (+ 4x Edc3 IDR) is 0.104 ppm.

The record behind these values is PMC6778109.
